According to patent US20090053242A1 (Amgen, published 2009):
Positions count from the first letter of the chain named. Each block holds one molecule with its values, some of them ahead of it.

Key:
[1] = target: human c-Mpl receptor (TPO receptor), full-length, transfected into IL-3 dependent murine 32D cells (human) (UniProt P40238); assay: cell-based or functional assay
[2] = target: T1, human c-Mpl receptor (TPO receptor), full-length, transfected into IL-3 dependent murine 32D cells (human, UniProt P40238 26-635); assay: cell-based or functional assay
T1 sequence (looked up): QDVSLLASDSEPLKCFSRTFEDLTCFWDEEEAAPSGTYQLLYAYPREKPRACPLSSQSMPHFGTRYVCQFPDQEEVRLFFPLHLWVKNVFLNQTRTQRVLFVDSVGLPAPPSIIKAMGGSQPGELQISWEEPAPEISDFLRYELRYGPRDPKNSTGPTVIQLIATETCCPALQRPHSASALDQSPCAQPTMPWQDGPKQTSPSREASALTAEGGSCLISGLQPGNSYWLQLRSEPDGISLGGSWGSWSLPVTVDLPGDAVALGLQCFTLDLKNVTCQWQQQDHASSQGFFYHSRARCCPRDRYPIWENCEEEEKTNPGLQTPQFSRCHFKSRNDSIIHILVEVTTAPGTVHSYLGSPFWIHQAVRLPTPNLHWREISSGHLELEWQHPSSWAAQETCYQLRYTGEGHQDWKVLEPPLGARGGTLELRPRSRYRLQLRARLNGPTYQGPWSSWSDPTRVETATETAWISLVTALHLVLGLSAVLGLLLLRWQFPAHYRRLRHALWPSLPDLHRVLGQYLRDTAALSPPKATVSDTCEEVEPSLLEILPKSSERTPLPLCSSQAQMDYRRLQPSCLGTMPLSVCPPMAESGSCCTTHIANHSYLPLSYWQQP

B1: TMP tandem dimer with linker of 3 glycine residues (peptide)
peptide: IEGPTLRQWLAARAGGGIEGPTLRQWLAARA
potency in TPO-dependent cell-proliferation assay, against the monomer [2]: > 1000 fold

B4: TMP tandem dimer with linker of 5 glycine residues (peptide)
peptide: IEGPTLRQWLAARAGGGGGIEGPTLRQWLAARA
potency in TPO-dependent cell-proliferation assay, against the monomer [2]: > 1000 fold

B6: TMP tandem dimer with linker of 6 glycine residues (peptide)
peptide: IEGPTLRQWLAARAGGGGGGIEGPTLRQWLAARA
potency in TPO-dependent cell-proliferation assay, against the monomer [2]: > 1000 fold

B8: TMP tandem dimer with linker of 4 glycine residues (peptide)
peptide: IEGPTLRQWLAARAGGGGIEGPTLRQWLAARA
potency in TPO-dependent cell-proliferation assay, against the monomer [2]: > 1000 fold

B9: TMP tandem dimer with linker of 1 glycine residue (peptide)
peptide: IEGPTLRQWLAARAGIEGPTLRQWLAARA
potency in TPO-dependent cell-proliferation assay, against the monomer [2]: > 1000 fold

B10: TMP tandem dimer with linker of 2 glycine residues (peptide)
peptide: IEGPTLRQWLAARAGGIEGPTLRQWLAARA
potency in TPO-dependent cell-proliferation assay, against the monomer [2]: > 1000 fold

Continued, values first:

potency in TPO-dependent cell-proliferation assay, against the monomer [1]: > 1000 fold
Molecule: TMP tandem dimer with linker of 14 glycine residues (peptide)

potency in TPO-dependent cell-proliferation assay, against the monomer [1]: > 1000 fold
Molecule: TMP tandem dimer with linker of 10 glycine residues (peptide)

potency in TPO-dependent cell-proliferation assay, against the monomer [1]: > 1000 fold
Molecule: TMP tandem dimer with linker of 9 glycine residues (peptide)

potency in TPO-dependent cell-proliferation assay, against the monomer [2]: > 1000 fold
B2: TMP tandem dimer without linker (0 glycine residues) (peptide)
peptide: IEGPTLRQWLAARAIEGPTLRQWLAARA

potency in TPO-dependent cell-proliferation assay, against the monomer [2]: > 1000 fold
B3: TMP tandem dimer with linker of 8 glycine residues (peptide)
peptide: IEGPTLRQWLAARAGGGGGGGGIEGPTLRQWLAARA

potency in TPO-dependent cell-proliferation assay, against the monomer [2]: > 1000 fold
B5: TMP tandem dimer with linker of 7 glycine residues (peptide)
peptide: IEGPTLRQWLAARAGGGGGGGIEGPTLRQWLAARA

activity in cell-proliferation assay, against the GGGG-linked analog [2]: > 10 fold less active | potency in cell-proliferation assay, against the monomer [2]: ~100 fold
B7: peptide 13, TMP tandem dimer with GPNG linker (peptide)
peptide: B8 peptide with G16P, G17N
